In experiment [1] the target is T1, human FcRn protein (MednaBio, E1032) (human, UniProt P55899 24-297; P61769 21-119).
T1 construct: Bought; assays at pH 6
The experiment in a line: BLI. A digest of the protocol:
(§1)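 Binding was measured by biolayer interferometry on an Octet Red96 System. Commercial human Fc receptor proteins were loaded at 20 μg/mL onto anti-penta-HIS biosensors, which were then dipped into an 8-point 1:3 dilution series of test IgG starting at 300 nM in PBS with 0.1% BSA and 0.02% Tween-20, at pH 7.2 for Fcγ receptors and pH 6 for FcRn. Kd, kon and koff were obtained by global fitting, with data fitted to a 1:1 binding model.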
In general terms: BLI is a label-free optical method that tracks binding on a fibre tip over time.

The target of experiment [2] is T2, human FcRI protein (MednaBio, E1031) (human, UniProt P12314 16-288, limits assumed).
T2 construct: Bought; loaded on anti-penta-HIS biosensors; also called FcγRI
T2 sequence (P12314 16-288 limits assumed): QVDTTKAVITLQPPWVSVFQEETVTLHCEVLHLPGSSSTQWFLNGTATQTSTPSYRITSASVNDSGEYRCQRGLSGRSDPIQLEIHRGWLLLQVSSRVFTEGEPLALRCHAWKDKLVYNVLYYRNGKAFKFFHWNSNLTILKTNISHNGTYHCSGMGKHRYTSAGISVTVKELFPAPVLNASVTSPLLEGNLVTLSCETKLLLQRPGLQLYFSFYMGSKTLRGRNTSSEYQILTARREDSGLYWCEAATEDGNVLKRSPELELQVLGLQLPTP
Description: BLI. A digest of the protocol:
as §1

Experiment [3] addresses T3, human FcRIIB/C protein (MednaBio, E1034) (human, UniProt P31994 43-217, limits assumed).
T3 construct: Bought as FcRIIB/C; also called FcγRIIB; CD32B
T3 sequence (looked up): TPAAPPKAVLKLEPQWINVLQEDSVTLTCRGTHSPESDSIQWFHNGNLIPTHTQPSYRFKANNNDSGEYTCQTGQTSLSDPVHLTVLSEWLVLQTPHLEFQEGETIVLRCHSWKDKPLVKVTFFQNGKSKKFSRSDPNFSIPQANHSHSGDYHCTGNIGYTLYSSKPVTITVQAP
The experiment in a line: BLI. A digest of the protocol:
as §1

Experiment [4] deals with T4, human FcRIIIA-F158 protein (MednaBio, E1036) (human, UniProt P08637 17-208).
T4 construct: Bought; also called FcγRIIIA(F)
T4 sequence (P08637 17-208 limits assumed): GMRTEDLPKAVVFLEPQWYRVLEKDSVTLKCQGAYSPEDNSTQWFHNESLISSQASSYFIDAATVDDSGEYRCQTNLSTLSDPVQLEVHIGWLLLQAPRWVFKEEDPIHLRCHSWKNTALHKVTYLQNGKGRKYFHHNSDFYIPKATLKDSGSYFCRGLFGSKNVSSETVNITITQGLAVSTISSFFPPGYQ
The experiment in a line: BLI. A digest of the protocol: as §1

The target of experiment [5] is T5, human FcRIIIA-V158 protein (MednaBio, E1035) (human, UniProt P08637 17-208).
T5 construct: Bought; also called FcγRIIIA(V); FcgRIIIA(V)
T5 sequence (P08637 17-208 F176V): as the sequence (P08637 17-208 limits assumed) above, with F160V counted along it
Description: BLI. A digest of the protocol:
as §1

Experiment [6] addresses T6, human FcRIIIB protein (MednaBio, E1037) (human, UniProt O75015 17-200).
T6 construct: Bought; also called FcγRIIIB; FcgRIIIB
Description: BLI. A digest of the protocol: as §1

The target in experiment [7] is T7, human FcRIIA protein (MednaBio, E1033) (human, UniProt P12318 34-218, limits assumed).
T7 construct: Bought; also called FcγRIIA
T7 sequence (looked up): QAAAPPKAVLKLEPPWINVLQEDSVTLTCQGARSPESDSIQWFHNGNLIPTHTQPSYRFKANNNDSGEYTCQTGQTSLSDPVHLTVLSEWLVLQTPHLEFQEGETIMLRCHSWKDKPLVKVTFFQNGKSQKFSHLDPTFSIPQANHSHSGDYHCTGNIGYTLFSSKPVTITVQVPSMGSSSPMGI
The experiment in a line: BLI. A digest of the protocol: as §1

Experiment [8] concerns the target T8, human FcγRIIA(R131) expressed on CHO cells (human, UniProt P12318 34-317).
T8 construct: whole, on cells
T8 sequence (looked up): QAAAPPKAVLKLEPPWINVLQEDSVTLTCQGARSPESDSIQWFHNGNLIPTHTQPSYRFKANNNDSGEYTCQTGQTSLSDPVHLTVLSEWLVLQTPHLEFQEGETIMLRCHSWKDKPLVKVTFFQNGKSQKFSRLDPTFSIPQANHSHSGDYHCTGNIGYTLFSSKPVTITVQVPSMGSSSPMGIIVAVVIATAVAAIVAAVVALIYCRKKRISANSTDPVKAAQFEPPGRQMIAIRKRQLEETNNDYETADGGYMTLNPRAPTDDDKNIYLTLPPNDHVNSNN
The experiment in a line: FACS, CHO cells expressing FcγRIIA(R131). The protocol: For FACS analysis of the IgG mutants' binding to different FcγRs, FcγR overexpressing CHO cells were harvested using trypsin-EDTA and were suspended in cold staining buffer (3% BSA in PBS). Test IgG mutants, which were diluted in staining buffer, were added into the cells. The mixture was incubated 4° C. for 2 hours, and then washed twice with cold staining buffer and re-suspended in PE-labeled anti-human IgG followed by incubation at 4° C. for 2 hours. The mixture was washed twice with staining buffer and re-suspended in 2% PFA in PBS for FACS.
(In general: In flow cytometry, cells or beads pass a laser one at a time.)

Experiment [9] has as its target T1, human FcRn protein (MednaBio, E1032). The experiment in a line: BLI. A digest of the protocol: as §1
The source holds these as a separate data set.

Experiment [10] has as its target T2, human FcRI protein (MednaBio, E1031). The experiment in a line: BLI. A digest of the protocol:
as §1
This is another data set of the same source.

Experiment [11] deals with T3, human FcRIIB/C protein (MednaBio, E1034). Description: BLI. A digest of the protocol:
as §1
This is another data set of the same source.

For experiment [12], the target named is T4, human FcRIIIA-F158 protein (MednaBio, …). Description: BLI. A digest of the protocol: as §1
The source holds these as a separate data set.

In experiment [13] the target is T5, human FcRIIIA-V158 protein (MednaBio, …). The experiment in a line: BLI. A digest of the protocol:
as §1
This is another data set of the same source.

Experiment [14] deals with T6, human FcRIIIB protein (MednaBio, E1037). The experiment in a line: BLI. A digest of the protocol: as §1
The source holds these as a separate data set.

Experiment [15] deals with T7, human FcRIIA protein (MednaBio, E1033). Description: BLI. The essentials:
as §1
The source holds these as a separate data set.

Positions count from the first letter of the chain named. Where two headings read alike, the source gives them in different places.

T6 sequence (O75015 17-200 limits assumed): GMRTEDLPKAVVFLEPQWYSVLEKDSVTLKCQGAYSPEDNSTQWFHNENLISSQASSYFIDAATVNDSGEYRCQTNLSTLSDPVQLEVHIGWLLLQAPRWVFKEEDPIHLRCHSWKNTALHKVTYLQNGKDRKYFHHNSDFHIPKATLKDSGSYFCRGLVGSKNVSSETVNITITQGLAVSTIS
T1 sequence (P55899 24-297 limits assumed, form in doubt, chain 1 of 2): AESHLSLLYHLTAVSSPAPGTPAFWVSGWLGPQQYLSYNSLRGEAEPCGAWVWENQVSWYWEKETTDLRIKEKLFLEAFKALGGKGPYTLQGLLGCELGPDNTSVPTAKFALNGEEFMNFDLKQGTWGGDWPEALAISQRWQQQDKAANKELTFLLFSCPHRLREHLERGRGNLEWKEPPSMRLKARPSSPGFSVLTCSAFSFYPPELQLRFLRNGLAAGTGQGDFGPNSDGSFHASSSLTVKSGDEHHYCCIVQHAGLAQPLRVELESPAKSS
T1 sequence (P61769 21-119 limits assumed, form in doubt, chain 2 of 2): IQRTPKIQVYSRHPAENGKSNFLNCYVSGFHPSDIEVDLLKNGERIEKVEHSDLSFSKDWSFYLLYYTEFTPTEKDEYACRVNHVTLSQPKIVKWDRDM

B1: anti-CD137 IgG2 with Fc variant G2m5 (antibody)
heavy: EVQLVQSGAEVKKPGESLRISCKGSGYSFSTYWISWVRQMPGKGLEWMGKIYPGDSYTNYSPSFQGQVTISADKSISTAYLQWSSLKASDTAMYYCARGYGIFDYWGQGTLVTVSSASTKGPSVFPLAPCSRSTSESTAALGCLVKDYFPEPVTVSWNSGALTSGVHTFPAVLQSSGLYSLSSVVTVPSSNFGTQTYTCNVDHKPSNTKVDKTVERKCCVECPPCPAPPVAGPSVFLFPPKPKDTLMISRTPEVTCVVVDVSHEDPEEQFNWYVDGVEVHNAKTKPREEQFNSTFRVVSVLTVVHQDWLNGKEYKCKVSNKGLPAPIEKTISKTKGQPREPQVYTLPPSREEMTKNQVSLTCLVKGFYPSDIAVEWESNGQPENNYKTTPPMLDSDGSFFLYSKLTVDKSRWQQGNVFSCSVMHEALHNHYTQKSLSLSPGK
light: SYELTQPPSVSVSPGQTASITCSGDNIGDQYAHWYQQKPGQSPVLVIYQDKNRPSGIPERFSGSNSGNTATLTISGTQAMDEADYYCATYTGFGSLAVFGGGTKLTVLGQPKAAPSVTLFPPSSEELQANKATLVCLISDFYPGAVTVAWKADSSPVKAGVETTTPSKQSNNKYAASSYLSLTPEQWKSHRSYSCQVTHEGSTVEKTVAPTECS
notes: copies: 2 + 2
A word on the Kd: it is a measure of binding affinity in units of concentration. Read a high Kd as lower affinity. What is called koff is the rate constant with which the complex falls apart. The term kon denotes the rate constant with which the complex forms. B1: the Kd in experiment [1] was 14 nM; in experiment [3], 310 nM; in [7], 230 nM. The results for the koff in experiment [1], in experiment [3] and in experiment [7] were 0.011 s⁻¹, 0.12 s⁻¹ and 0.14 s⁻¹, respectively. Besides, the kon in experiment [1] is 800000 M⁻¹ s⁻¹; in [3], 390000 M⁻¹ s⁻¹; in experiment [7] it was 600000 M⁻¹ s⁻¹. Further, the binding result in [2] was “no binding (tested: 300 nM)”; in [4], “no binding (tested: 300 nM)”; in experiment [5] it was “no binding (tested: 300 nM)”; in experiment [6], “no binding (tested: 300 nM)”; in experiment [8], “no binding (tested: 10 ug/ml)”.

B2: anti-CD137 IgG2 with Fc variant G2m17 (antibody)
heavy: EVQLVQSGAEVKKPGESLRISCKGSGYSFSTYWISWVRQMPGKGLEWMGKIYPGDSYTNYSPSFQGQVTISADKSISTAYLQWSSLKASDTAMYYCARGYGIFDYWGQGTLVTVSSASTKGPSVFPLAPCSRSTSESTAALGCLVKDYFPEPVTVSWNSGALTSGVHTFPAVLQSSGLYSLSSVVTVPSSNFGTQTYTCNVDHKPSNTKVDKTVERKCCVECPPCPAPPVASVFLFPPKPKDTLMISRTPEVTCVVVDVEHEDPEVQFNWYVDGVEVHNAKTKPREEQFNSTFRVVSVLTVVHQDWLNGKEYKCKVSNKGLPAPIEKTISKTKGQPREPQVYTLPPSREEMTKNQVSLTCLVKGFYPSDIAVEWESNGQPENNYKTTPPMLDSDGSFFLYSKLTVDKSRWQQGNVFSCSVMHEALHNHYTQKSLSLSPGK
light: B1 light
notes: copies: 2 + 2
Consider B2, for which the Kd turned out to be 7.46 nM in experiment [9]; 253 nM in experiment [10]; 236 nM in experiment [11]; 168 nM in experiment [12]; 153 nM in experiment [13]; 117 nM in [14]. In addition, the affinity in experiment [15], expressed as Kd, was 422 nM. In addition, the off-rate (koff) in [9] is 0.0139 s⁻¹; in experiment [10], 0.277 s⁻¹; in experiment [11], 0.0848 s⁻¹; in experiment [12] it was 0.262 s⁻¹; in experiment [13], 0.205 s⁻¹; in [14], 0.204 s⁻¹. Besides, the koff in experiment [15] came to 0.274 s⁻¹. Besides, the kon in [9] was 1.87e+06 M⁻¹ s⁻¹; in [10], 1.09e+06 M⁻¹ s⁻¹; in experiment [11], 361000 M⁻¹ s⁻¹; in experiment [12], 1.56e+06 M⁻¹ s⁻¹; in [13] it was 1.34e+06 M⁻¹ s⁻¹; in [14], 1.74e+06 M⁻¹ s⁻¹. In addition, in experiment [15], the association rate constant (kon) is 648000 M⁻¹ s⁻¹.

B3: anti-CD137 IgG2 with Fc variant G2m20 (antibody)
heavy: EVQLVQSGAEVKKPGESLRISCKGSGYSFSTYWISWVRQMPGKGLEWMGKIYPGDSYTNYSPSFQGQVTISADKSISTAYLQWSSLKASDTAMYYCARGYGIFDYWGQGTLVTVSSASTKGPSVFPLAPCSRSTSESTAALGCLVKDYFPEPVTVSWNSGALTSGVHTFPAVLQSSGLYSLSSVVTVPSSNFGTQTYTCNVDHKPSNTKVDKTVERKCCVECPPCPAPPVAPSVFLFPPKPKDTLMISRTPEVTCVVVDVSHEDPEVQFNWYVDGVEVHNAKTKPREEQFNSTFRVVSVLTVVHQDWLNGKEYKCKVSNKGLPAPIEKTISKTKGQPREPQVYTLPPSREEMTKNQVSLTCLVKGFYPSDIAVEWESNGQPENNYKTTPPMLDSDGSFFLYSKLTVDKSRWQQGNVFSCSVMHEALHNHYTQKSLSLSPGK
light: B1 light
notes: copies: 2 + 2
As for B3, the Kd in experiment [9] was found to be 57.6 nM; in experiment [11] it was 517 nM; in experiment [12], 917 nM; in experiment [13], 1260 nM; in experiment [15] it was 829 nM. Besides, the koff came to 0.0122 s⁻¹ in [9]; 0.0915 s⁻¹ in [11]; 0.013 s⁻¹ in experiment [12]; 0.0149 s⁻¹ in experiment [13]; 0.0165 s⁻¹ in experiment [15]. Moreover, the kon in experiment [9] was determined as 212000 M⁻¹ s⁻¹; in experiment [11], 176000 M⁻¹ s⁻¹; in experiment [12], 14300 M⁻¹ s⁻¹; in experiment [13], 11800 M⁻¹ s⁻¹; in [15], 19900 M⁻¹ s⁻¹. Moreover, the binding result in experiment [10] and in [14] was “no binding (tested: 300 nM)” in each case.

B4: anti-CD137 IgG2 with Fc variant G2m28 (antibody)
heavy: B3 heavy with S261E
light: B1 light
notes: also called Gbn28; copies: 2 + 2
Turning to B4, the Kd in experiment [9] is 26.4 nM; in experiment [10], 66.1 nM; in [11], 256 nM; in experiment [12], 527 nM; in [15] it was 191 nM. Moreover, the koff in experiment [9] is 0.0195 s⁻¹; in experiment [10], 0.098 s⁻¹; in [11], 0.0464 s⁻¹; in experiment [12], 0.257 s⁻¹; in experiment [15], 0.0898 s⁻¹. For the same molecule, the kon in experiment [9] was found to be 737000 M⁻¹ s⁻¹; in [10], 1.49e+06 M⁻¹ s⁻¹; in experiment [11], 181000 M⁻¹ s⁻¹; in experiment [12], 487000 M⁻¹ s⁻¹; in experiment [15], 470000 M⁻¹ s⁻¹. Besides, the binding result in experiment [13] and in experiment [14] was “no binding (tested: 300 nM)” each time.

These data come from patent US20200392227A1 (LYVGEN BIOPHARMA, published 2020).
